Measurements: the Human Domainome abundance scans (Beltran et al. 2025)
± gives the uncertainty stated by the source.

B1: Ankyrin-1, residues 1405 to 1484; numbered along this chain, P16157 (parent)
chain: MKMAVISEHLGLSWAELARELQFSVEDINRIRVENPNSLLEQSVALLNLWVIREGQNANMENLYTALQSIDRGEIVNMLE

Variants of: B1
Experiment: abundance fitness (aPCA) (normalised: wild type 0, dead -1); higher = more abundant; growth selection in yeast, the domain comes from the species named
Details: Homo sapiens

Variant | abundance fitness
MKMAVISEHLGLSWAELARELQFSVEDINRIRVENPNSLLEQSVALLNLWVIREGQNANMENLYTACQSIDRGEIVNMLE | -0.743 ± 0.28
MKMAVISEHLGLSWAELARELQFSVEDINRIRVENPNSYLEQSVALLNLWVIREGQNANMENLYTALQSIDRGEIVNMLE | 0.004 ± 0.13
MKMAVISEHLGLSWAELARELQFSVEDINRIRVENPNSLLEQSVALLNLWVIREGQNANMENLYTALQSIDRGEIVNMLL | -0.329 ± 0.12
MKMAVISEHLGASWAELARELQFSVEDINRIRVENPNSLLEQSVALLNLWVIREGQNANMENLYTALQSIDRGEIVNMLE | 0.213 ± 0.085
MKMAVISEHLGLSWCELARELQFSVEDINRIRVENPNSLLEQSVALLNLWVIREGQNANMENLYTALQSIDRGEIVNMLE | -0.238 ± 0.13
MKMAVISEHLGLSWAELARHLQFSVEDINRIRVENPNSLLEQSVALLNLWVIREGQNANMENLYTALQSIDRGEIVNMLE | -0.12 ± 0.1
MKMAVISEHLGLSWAELARELQFSVEDENRIRVENPNSLLEQSVALLNLWVIREGQNANMENLYTALQSIDRGEIVNMLE | -0.627 ± 0.11
MKMAVISEHLGLSWAELARELQFSVEDGNRIRVENPNSLLEQSVALLNLWVIREGQNANMENLYTALQSIDRGEIVNMLE | -0.891 ± 0.11
MKMAVISEHLGLSWAELARELQFSVEDYNRIRVENPNSLLEQSVALLNLWVIREGQNANMENLYTALQSIDRGEIVNMLE | -0.485 ± 0.2
MKMAVISEHLGLSWAELARELQFSVEDINRIRVENPNSLLEQSCALLNLWVIREGQNANMENLYTALQSIDRGEIVNMLE | 0.05 ± 0.062
MKMAVISEHLGLSWAELARELQFSVEDINRIRVENPNSLLEQSFALLNLWVIREGQNANMENLYTALQSIDRGEIVNMLE | 0.182 ± 0.086
MKMAVISEHLGLSWAELARELQFSDEDINRIRVENPNSLLEQSVALLNLWVIREGQNANMENLYTALQSIDRGEIVNMLE | -0.05 ± 0.1
MKMAVISEHLGLSWAELARELQFSVEDINRIRVENPNSLLEQSVALLNLWYIREGQNANMENLYTALQSIDRGEIVNMLE | -0.023 ± 0.2
MKMAVISEHLGLSWAELARELQFSVEDINRIRVENPNSLLEQSVALLNLWHIREGQNANMENLYTALQSIDRGEIVNMLE | 0.026 ± 0.1
MKMAVISEHLGLSWAELARELQFSVEDINRIRVENPNSLLEQSVALLNLWVIREGQNANMENLYTALQSIHRGEIVNMLE | -0.192 ± 0.18
MKMAVISEHLGLSWAELARELQFSVEDINRIRVENPNSLLEQSVALLNLWVIREGQNANMENLYTALQSITRGEIVNMLE | -0.385 ± 0.15
MKMAVISEHLGLSWAELARELQFSVEDINRIRVEEPNSLLEQSVALLNLWVIREGQNANMENLYTALQSIDRGEIVNMLE | 0.051 ± 0.39
MKMAVISEHLGLSWAELARELQFSVEDINRIRVENANSLLEQSVALLNLWVIREGQNANMENLYTALQSIDRGEIVNMLE | 0.016 ± 0.071
MKMAVISEHLGLSWAEHARELQFSVEDINRIRVENPNSLLEQSVALLNLWVIREGQNANMENLYTALQSIDRGEIVNMLE | -0.671 ± 0.4
MKMAVISEHLGLSWAELARELQFSVEDINRIRVENPNSLLEQSVALLNLWVIREGQNANMENLYTALQSIDRGEIVNGLE | -0.085 ± 0.065
MKMAVISEHLGLSWAELARELQFSVEDINRIRVENPNSLLEQSVALLNLWVIREGQNANMENLYTALQSIDRGEIVNFLE | -0.146 ± 0.11
MKMAVISHHLGLSWAELARELQFSVEDINRIRVENPNSLLEQSVALLNLWVIREGQNANMENLYTALQSIDRGEIVNMLE | -0.398 ± 0.18
MKMAVISEHLGLSWAELARELQFSVEDINRIRVENPNSLLEQSVALLNLWVIREGQNANMENLYTALGSIDRGEIVNMLE | -0.152 ± 0.039

Variant | abundance fitness
MKMAVISEHLGLSWAELARELQFTVEDINRIRVENPNSLLEQSVALLNLWVIREGQNANMENLYTALQSIDRGEIVNMLE | -0.191 ± 0.088
MKMAVISEHLGLSWAELALELQFSVEDINRIRVENPNSLLEQSVALLNLWVIREGQNANMENLYTALQSIDRGEIVNMLE | 0.025 ± 0.053
MKMAVISEHLGLSWAELADELQFSVEDINRIRVENPNSLLEQSVALLNLWVIREGQNANMENLYTALQSIDRGEIVNMLE | -0.296 ± 0.11
MKMAVISEHLGLSWAELARELQFSVEDINRIRVENPNSLLEQSVALLNLWVIREGQNANMENLYPALQSIDRGEIVNMLE | 0.095 ± 0.065
MKMAVISEHAGLSWAELARELQFSVEDINRIRVENPNSLLEQSVALLNLWVIREGQNANMENLYTALQSIDRGEIVNMLE | -0.884 ± 0.2
MKMAVISEHLGLSWAELARELQFSVEDINRIKVENPNSLLEQSVALLNLWVIREGQNANMENLYTALQSIDRGEIVNMLE | -0.3 ± 0.12
MKMAVISEHLGLSWAELARELQFSVEDINRIRVENPNSLLEQSVALLNLWVIHEGQNANMENLYTALQSIDRGEIVNMLE | -0.758 ± 0.23
MKMAVISEHLGLSWAELARELQFSVEDINRIRVENPNSLLEQSVALLNLWVISEGQNANMENLYTALQSIDRGEIVNMLE | -0.591 ± 0.1
MKMAVISEHLGLSWAELARELQFSVEDINRIRVENPNSLLEQSVALLNLWVIREGQNANMENSYTALQSIDRGEIVNMLE | -0.637 ± 0.18
MKMAVISEHLGLSWAELARELQFSVEDINRIRVENPNSLLEQSVALLNLWVIREGQNANMENLYTALQSIDRCEIVNMLE | -0.272 ± 0.096
MKMAVISEHLGLSWAELARELQFSVEDINRIRVENPNSLLEQSVALLNLWVIREGQNANMENLYTALQSIDRFEIVNMLE | -0.284 ± 0.1
MKMAVISEHLGLSWAELARELQFSVEDINRIRVENPNSLYEQSVALLNLWVIREGQNANMENLYTALQSIDRGEIVNMLE | -0.189 ± 0.11
MKMAVISEHLGLSWAELARELQFSVEDIARIRVENPNSLLEQSVALLNLWVIREGQNANMENLYTALQSIDRGEIVNMLE | -0.062 ± 0.052
MKMAVISEHLGLSWAELARELQFSVEDINRIRVENPNSLLEQWVALLNLWVIREGQNANMENLYTALQSIDRGEIVNMLE | -0.805 ± 0.17
MKMAVVSEHLGLSWAELARELQFSVEDINRIRVENPNSLLEQSVALLNLWVIREGQNANMENLYTALQSIDRGEIVNMLE | 0.224 ± 0.15
MKMAVISEHLGLSWAELARELQFSVGDINRIRVENPNSLLEQSVALLNLWVIREGQNANMENLYTALQSIDRGEIVNMLE | -0.127 ± 0.039
MKMAVISEHLGLSWAELARELQFSVEDINRIRVENPNSLLEQSVALLNLWVIREGQNANMENLYTRLQSIDRGEIVNMLE | -0.746 ± 0.1
MKMAVISEHLGLSWAELARELQFSVEDINRIRVENPNSLLEQSVALLNLWVIREGQNANMENLYTLLQSIDRGEIVNMLE | -0.977 ± 0.11
MKMAVISEHLGLSWAMLARELQFSVEDINRIRVENPNSLLEQSVALLNLWVIREGQNANMENLYTALQSIDRGEIVNMLE | -0.207 ± 0.1
MKMAVISEHLGLSWARLARELQFSVEDINRIRVENPNSLLEQSVALLNLWVIREGQNANMENLYTALQSIDRGEIVNMLE | -0.085 ± 0.056
MKMAVISEHLGLSWAGLARELQFSVEDINRIRVENPNSLLEQSVALLNLWVIREGQNANMENLYTALQSIDRGEIVNMLE | 0.018 ± 0.047
MKMAVISEHLGLSWAELARELQFSVEDINRIRVENPQSLLEQSVALLNLWVIREGQNANMENLYTALQSIDRGEIVNMLE | -0.444 ± 0.35
MKMAVISEHLGLSWAELARELQFSVEDINRIRVENPNSLLWQSVALLNLWVIREGQNANMENLYTALQSIDRGEIVNMLE | -0.563 ± 0.1

Variant | abundance fitness
MKMAVISEHLELSWAELARELQFSVEDINRIRVENPNSLLEQSVALLNLWVIREGQNANMENLYTALQSIDRGEIVNMLE | 0.195 ± 0.14
MKMAVISEHLALSWAELARELQFSVEDINRIRVENPNSLLEQSVALLNLWVIREGQNANMENLYTALQSIDRGEIVNMLE | -0.47 ± 0.079
MKMAVISEHLGLSWAELARELQFSVEDINRIRVENPNSLLEQSVALLNLWVIREPQNANMENLYTALQSIDRGEIVNMLE | -0.69 ± 0.41
MKMAVISEHLGLSWAELARELQFSVECINRIRVENPNSLLEQSVALLNLWVIREGQNANMENLYTALQSIDRGEIVNMLE | -0.063 ± 0.15
MKMAVISEHLGLSWAELARELQFSVESINRIRVENPNSLLEQSVALLNLWVIREGQNANMENLYTALQSIDRGEIVNMLE | -0.127 ± 0.058
MKMAVISEHLGLSWAELARELQFSVEDINRIRVENPNKLLEQSVALLNLWVIREGQNANMENLYTALQSIDRGEIVNMLE | -0.386 ± 0.25
MKMAVISEHLGLSWAELARELQFSVEDINRIRVENPNYLLEQSVALLNLWVIREGQNANMENLYTALQSIDRGEIVNMLE | -0.749 ± 0.25
MKMAVISEHLGLSWAELARELQFSVEDINRIRVENPNDLLEQSVALLNLWVIREGQNANMENLYTALQSIDRGEIVNMLE | -0.048 ± 0.2
MKMAVISEHLGLSWAELARELQFSVEDINRIRVENPNSLLEQSVALLNLWVIREGQNANMENLYTALQSIDRGEIVNMKE | -0.429 ± 0.21
MKMAVISEHLGLSWAELARELQFSVEDINRIRVENPNSLLEQSVALLNLWVIREGQNANMENLYTALQSIDRGEIVNMVE | 0.132 ± 0.049
MKMAVISEHLGLSWAELARELQFSVEDINRIRVENPNSLLEQSVALLNLCVIREGQNANMENLYTALQSIDRGEIVNMLE | -0.71 ± 0.36
MKMAVISEHLGLSWAELARELQFSVEDINRIRVENPNSLLEQSVALLNLGVIREGQNANMENLYTALQSIDRGEIVNMLE | -1.07 ± 0.16
MKMHVISEHLGLSWAELARELQFSVEDINRIRVENPNSLLEQSVALLNLWVIREGQNANMENLYTALQSIDRGEIVNMLE | -0.622 ± 0.28
MKMQVISEHLGLSWAELARELQFSVEDINRIRVENPNSLLEQSVALLNLWVIREGQNANMENLYTALQSIDRGEIVNMLE | -0.041 ± 0.11
MKMFVISEHLGLSWAELARELQFSVEDINRIRVENPNSLLEQSVALLNLWVIREGQNANMENLYTALQSIDRGEIVNMLE | -0.206 ± 0.14
MKMAVISEHLGLSWAELARELQFSVEDINRIRVENPNSLLEQSVALLNLWVIREGQNANMERLYTALQSIDRGEIVNMLE | 0.032 ± 0.1
MKMAVISEHLGLSWAELARELQFSVEDINRIRVENPNSLLEQSVNLLNLWVIREGQNANMENLYTALQSIDRGEIVNMLE | -0.226 ± 0.18
MKMAVISEHLGLSWAELARELQFSVEDINRIRVENPNSLLEQSVGLLNLWVIREGQNANMENLYTALQSIDRGEIVNMLE | -0.248 ± 0.05
MKMAVIFEHLGLSWAELARELQFSVEDINRIRVENPNSLLEQSVALLNLWVIREGQNANMENLYTALQSIDRGEIVNMLE | -0.126 ± 0.12
MKMAVISEHLGLSWAELARELQFSVEDINAIRVENPNSLLEQSVALLNLWVIREGQNANMENLYTALQSIDRGEIVNMLE | -0.215 ± 0.059
MKMAVISEHLGLSWAELARELQFSVEDINRIRVENPNSLLEQSVALLNLWVIREGQNANMENLYTALQSIDRGEIKNMLE | -0.283 ± 0.14
MKMAVISEHLGLSWAELARELQFSVEDINRIRVVNPNSLLEQSVALLNLWVIREGQNANMENLYTALQSIDRGEIVNMLE | -0.308 ± 0.099
MKMAVISEHLGLSWAELARELQFSVEDINRIRVLNPNSLLEQSVALLNLWVIREGQNANMENLYTALQSIDRGEIVNMLE | -0.241 ± 0.097
